Consider two molecules from article PMC7483370 (Molecular cell, 2020).

Experiment [1] has as its target p300, purified recombinant (baculovirus) (human, UniProt Q09472 1-2414). Kind of experiment: co-IP.
The target of experiment [2] is T1, Androgen receptor, full-length, flag-tagged, recombinant (baculovirus) (human, UniProt P10275 1-920).
T1 sequence (looked up): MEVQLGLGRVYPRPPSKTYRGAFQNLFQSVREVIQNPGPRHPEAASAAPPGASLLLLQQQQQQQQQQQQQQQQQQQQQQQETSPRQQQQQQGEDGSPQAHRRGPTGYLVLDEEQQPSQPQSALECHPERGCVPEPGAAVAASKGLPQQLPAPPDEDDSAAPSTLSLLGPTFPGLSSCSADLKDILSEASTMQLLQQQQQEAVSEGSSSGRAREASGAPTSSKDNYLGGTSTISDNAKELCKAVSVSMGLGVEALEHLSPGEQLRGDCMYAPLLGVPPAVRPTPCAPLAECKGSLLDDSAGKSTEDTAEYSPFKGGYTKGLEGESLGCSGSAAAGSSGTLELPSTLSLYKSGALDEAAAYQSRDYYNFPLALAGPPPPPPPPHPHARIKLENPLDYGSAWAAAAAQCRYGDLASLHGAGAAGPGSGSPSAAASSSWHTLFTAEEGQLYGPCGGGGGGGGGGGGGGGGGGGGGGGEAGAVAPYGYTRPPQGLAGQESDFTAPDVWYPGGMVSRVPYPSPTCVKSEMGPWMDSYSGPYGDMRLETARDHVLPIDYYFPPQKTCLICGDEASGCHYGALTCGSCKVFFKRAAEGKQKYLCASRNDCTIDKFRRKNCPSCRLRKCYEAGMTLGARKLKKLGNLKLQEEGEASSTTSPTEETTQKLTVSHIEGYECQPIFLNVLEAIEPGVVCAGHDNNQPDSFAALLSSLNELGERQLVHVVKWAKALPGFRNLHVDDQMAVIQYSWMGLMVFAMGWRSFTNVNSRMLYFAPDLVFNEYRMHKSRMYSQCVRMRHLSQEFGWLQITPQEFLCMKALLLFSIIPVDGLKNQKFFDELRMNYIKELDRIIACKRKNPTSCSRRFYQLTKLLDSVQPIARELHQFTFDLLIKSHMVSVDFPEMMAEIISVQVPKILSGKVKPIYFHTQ
The experiment in a line: cryo-EM structure.

p300, purified recombinant (baculovirus), sequence (Q09472 whole entry): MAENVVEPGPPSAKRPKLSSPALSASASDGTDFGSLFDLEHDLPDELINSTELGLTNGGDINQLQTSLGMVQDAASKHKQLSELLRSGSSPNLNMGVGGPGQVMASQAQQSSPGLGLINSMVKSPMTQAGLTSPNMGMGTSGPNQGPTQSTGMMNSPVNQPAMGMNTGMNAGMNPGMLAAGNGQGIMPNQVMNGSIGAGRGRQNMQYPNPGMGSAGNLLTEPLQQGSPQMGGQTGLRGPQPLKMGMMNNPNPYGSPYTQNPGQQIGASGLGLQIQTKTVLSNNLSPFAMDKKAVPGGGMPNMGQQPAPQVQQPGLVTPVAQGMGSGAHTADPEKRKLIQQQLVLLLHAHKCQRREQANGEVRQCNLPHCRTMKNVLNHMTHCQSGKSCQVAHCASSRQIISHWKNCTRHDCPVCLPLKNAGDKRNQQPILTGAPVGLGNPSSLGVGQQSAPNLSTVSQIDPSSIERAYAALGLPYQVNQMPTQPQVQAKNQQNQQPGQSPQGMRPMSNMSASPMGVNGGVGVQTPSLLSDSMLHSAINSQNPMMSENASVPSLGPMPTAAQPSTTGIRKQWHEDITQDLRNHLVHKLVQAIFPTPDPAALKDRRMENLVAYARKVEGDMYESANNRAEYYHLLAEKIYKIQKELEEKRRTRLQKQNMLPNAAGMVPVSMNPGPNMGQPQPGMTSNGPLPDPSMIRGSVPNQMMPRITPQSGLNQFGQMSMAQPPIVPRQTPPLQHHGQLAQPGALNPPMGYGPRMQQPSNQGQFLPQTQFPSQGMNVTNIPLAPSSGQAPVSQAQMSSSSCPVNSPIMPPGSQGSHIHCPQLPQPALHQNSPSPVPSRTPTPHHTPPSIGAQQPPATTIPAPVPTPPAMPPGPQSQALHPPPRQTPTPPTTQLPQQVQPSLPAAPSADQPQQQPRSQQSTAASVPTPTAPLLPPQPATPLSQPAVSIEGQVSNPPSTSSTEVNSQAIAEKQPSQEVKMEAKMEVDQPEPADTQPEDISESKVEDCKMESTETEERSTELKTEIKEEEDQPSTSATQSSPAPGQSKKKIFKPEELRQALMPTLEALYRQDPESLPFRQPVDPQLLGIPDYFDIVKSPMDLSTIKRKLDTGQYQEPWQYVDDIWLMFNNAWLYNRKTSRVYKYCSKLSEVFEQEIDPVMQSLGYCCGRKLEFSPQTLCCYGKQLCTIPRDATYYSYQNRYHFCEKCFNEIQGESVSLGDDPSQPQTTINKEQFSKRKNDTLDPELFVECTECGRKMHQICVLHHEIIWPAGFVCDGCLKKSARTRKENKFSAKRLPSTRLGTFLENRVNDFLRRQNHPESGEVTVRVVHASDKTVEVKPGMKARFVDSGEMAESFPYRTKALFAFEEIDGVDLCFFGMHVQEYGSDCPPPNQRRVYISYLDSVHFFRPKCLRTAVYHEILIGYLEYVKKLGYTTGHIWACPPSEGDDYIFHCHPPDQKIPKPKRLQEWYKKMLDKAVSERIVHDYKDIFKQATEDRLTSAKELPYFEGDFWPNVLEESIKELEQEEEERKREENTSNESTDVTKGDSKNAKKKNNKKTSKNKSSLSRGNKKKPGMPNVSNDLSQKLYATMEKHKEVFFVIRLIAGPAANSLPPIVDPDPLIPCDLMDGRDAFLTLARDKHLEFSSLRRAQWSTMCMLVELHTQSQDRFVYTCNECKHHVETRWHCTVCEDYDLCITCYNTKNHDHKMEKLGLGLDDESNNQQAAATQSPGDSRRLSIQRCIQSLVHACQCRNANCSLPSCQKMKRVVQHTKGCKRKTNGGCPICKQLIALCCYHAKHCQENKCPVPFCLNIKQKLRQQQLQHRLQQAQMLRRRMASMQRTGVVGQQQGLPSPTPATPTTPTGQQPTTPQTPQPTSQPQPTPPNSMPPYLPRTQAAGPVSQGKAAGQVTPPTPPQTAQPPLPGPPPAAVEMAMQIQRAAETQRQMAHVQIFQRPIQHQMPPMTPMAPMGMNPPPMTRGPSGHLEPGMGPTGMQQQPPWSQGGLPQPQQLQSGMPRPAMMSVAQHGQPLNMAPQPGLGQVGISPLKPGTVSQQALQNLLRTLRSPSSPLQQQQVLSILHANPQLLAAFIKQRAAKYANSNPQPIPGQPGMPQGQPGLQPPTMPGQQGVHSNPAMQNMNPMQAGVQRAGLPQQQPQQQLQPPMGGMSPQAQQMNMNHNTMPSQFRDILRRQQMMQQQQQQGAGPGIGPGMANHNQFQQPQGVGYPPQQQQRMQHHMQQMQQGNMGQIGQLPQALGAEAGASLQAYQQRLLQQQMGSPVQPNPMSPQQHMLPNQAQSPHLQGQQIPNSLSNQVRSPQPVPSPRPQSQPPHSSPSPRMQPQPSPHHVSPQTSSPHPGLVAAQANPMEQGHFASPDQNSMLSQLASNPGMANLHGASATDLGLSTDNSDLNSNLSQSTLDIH

B1: Flag-tagged AR (1-669aa), deletion mutant lacking the LBD (domain or fragment, human, UniProt P10275 1-669, looked up)
chain: MEVQLGLGRVYPRPPSKTYRGAFQNLFQSVREVIQNPGPRHPEAASAAPPGASLLLLQQQQQQQQQQQQQQQQQQQQQQQETSPRQQQQQQGEDGSPQAHRRGPTGYLVLDEEQQPSQPQSALECHPERGCVPEPGAAVAASKGLPQQLPAPPDEDDSAAPSTLSLLGPTFPGLSSCSADLKDILSEASTMQLLQQQQQEAVSEGSSSGRAREASGAPTSSKDNYLGGTSTISDNAKELCKAVSVSMGLGVEALEHLSPGEQLRGDCMYAPLLGVPPAVRPTPCAPLAECKGSLLDDSAGKSTEDTAEYSPFKGGYTKGLEGESLGCSGSAAAGSSGTLELPSTLSLYKSGALDEAAAYQSRDYYNFPLALAGPPPPPPPPHPHARIKLENPLDYGSAWAAAAAQCRYGDLASLHGAGAAGPGSGSPSAAASSSWHTLFTAEEGQLYGPCGGGGGGGGGGGGGGGGGGGGGGGEAGAVAPYGYTRPPQGLAGQESDFTAPDVWYPGGMVSRVPYPSPTCVKSEMGPWMDSYSGPYGDMRLETARDHVLPIDYYFPPQKTCLICGDEASGCHYGALTCGSCKVFFKRAAEGKQKYLCASRNDCTIDKFRRKNCPSCRLRKCYEAGMTLGARKLKKLGNLKLQEEGEASSTTSPTEETTQKLTVSHIEGYE
Take B1: in experiment [1], the binding result is given as “binds”.

B2: SRC-3, purified recombinant (baculovirus) (natural protein)
chain: not shown
As for B2, in experiment [2], the “stoichiometry N” value is 1.

The term stoichiometry N denotes a count of units in the complex or per binding partner.
